Measurements: US20070136897A1, “Nucleic acid molecules encoding hyperactive nucleoside di-phosphate kinase 2 and uses thereof” (priority 2005, published 2007)

T1: Arabidopsis thaliana NDPK2 C-terminal deletion mutant R230Stop (80-229aa), SEQ ID NO: 2 (Arabidopsis thaliana, UniProt O64903)
T1 sequence (O64903 80-229): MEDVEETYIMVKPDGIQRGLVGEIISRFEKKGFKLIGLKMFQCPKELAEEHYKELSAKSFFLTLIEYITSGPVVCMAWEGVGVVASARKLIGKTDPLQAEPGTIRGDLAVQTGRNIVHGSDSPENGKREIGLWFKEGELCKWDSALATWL

T2: purified native oat phytochrome A, Pfr form, P06593
T2 chain: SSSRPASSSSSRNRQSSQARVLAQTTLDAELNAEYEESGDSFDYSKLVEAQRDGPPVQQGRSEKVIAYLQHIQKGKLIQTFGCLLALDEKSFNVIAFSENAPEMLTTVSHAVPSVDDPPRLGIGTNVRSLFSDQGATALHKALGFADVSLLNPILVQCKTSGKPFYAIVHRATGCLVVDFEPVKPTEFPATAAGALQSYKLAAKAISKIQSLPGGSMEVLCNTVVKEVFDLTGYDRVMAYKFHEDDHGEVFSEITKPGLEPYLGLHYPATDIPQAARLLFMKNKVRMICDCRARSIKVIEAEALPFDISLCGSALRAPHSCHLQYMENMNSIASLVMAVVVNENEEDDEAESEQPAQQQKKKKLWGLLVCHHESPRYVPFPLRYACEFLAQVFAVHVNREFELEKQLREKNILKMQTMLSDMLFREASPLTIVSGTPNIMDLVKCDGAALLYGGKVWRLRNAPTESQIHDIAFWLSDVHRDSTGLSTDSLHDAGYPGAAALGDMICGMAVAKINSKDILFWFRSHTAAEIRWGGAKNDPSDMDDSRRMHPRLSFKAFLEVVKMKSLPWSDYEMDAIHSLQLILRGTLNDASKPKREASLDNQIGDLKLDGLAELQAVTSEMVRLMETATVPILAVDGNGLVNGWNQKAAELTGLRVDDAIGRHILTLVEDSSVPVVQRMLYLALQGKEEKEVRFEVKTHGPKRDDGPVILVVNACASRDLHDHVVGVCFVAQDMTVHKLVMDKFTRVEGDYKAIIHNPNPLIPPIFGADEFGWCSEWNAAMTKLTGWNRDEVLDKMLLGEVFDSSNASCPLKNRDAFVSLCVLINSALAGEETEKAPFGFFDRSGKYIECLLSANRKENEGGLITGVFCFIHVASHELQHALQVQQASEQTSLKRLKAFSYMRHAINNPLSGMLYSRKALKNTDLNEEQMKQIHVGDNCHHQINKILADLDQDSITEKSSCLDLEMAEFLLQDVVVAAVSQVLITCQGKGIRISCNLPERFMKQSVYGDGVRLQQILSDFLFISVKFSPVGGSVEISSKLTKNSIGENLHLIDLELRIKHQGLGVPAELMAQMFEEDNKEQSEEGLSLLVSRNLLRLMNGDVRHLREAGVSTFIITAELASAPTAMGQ

T3: purified native oat phytochrome A, Pfr form (oat, UniProt P06593 2-1129)
T3 construct: also called phyA; Pfr phytochrome
T3 sequence (looked up): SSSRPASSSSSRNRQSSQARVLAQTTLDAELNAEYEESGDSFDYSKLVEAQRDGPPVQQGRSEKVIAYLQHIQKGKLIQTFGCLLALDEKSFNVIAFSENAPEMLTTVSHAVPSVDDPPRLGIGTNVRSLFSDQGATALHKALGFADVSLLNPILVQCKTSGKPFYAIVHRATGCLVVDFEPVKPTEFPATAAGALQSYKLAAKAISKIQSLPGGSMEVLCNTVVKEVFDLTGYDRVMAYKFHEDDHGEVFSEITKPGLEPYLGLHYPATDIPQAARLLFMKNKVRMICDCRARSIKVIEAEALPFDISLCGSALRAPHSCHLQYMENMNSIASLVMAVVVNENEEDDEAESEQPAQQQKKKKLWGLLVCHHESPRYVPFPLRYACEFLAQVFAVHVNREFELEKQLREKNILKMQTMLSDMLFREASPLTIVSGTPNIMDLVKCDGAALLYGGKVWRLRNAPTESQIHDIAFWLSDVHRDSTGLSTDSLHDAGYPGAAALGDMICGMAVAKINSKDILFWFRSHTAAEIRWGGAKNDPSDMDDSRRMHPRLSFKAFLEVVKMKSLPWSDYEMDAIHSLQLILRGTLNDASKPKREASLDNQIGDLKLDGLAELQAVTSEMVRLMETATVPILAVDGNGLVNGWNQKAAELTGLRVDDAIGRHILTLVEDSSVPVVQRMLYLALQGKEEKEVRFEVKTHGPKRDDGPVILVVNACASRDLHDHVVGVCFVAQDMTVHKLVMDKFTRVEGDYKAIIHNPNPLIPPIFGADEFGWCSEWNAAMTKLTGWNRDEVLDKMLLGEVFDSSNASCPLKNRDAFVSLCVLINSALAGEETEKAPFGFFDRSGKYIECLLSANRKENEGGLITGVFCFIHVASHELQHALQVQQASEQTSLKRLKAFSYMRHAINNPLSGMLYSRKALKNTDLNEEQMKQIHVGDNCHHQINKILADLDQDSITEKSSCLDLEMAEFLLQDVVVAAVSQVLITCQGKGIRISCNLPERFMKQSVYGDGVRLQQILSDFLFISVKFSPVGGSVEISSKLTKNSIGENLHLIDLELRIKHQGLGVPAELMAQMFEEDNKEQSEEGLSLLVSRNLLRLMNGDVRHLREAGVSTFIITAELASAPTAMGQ


Key:
[1] = biological target: Arabidopsis thaliana NDPK2 C-terminal deletion mutant L225Stop (80-224aa), SEQ ID NO: 3 (Arabidopsis thaliana, UniProt O64903); details: read-out: Km (ATP); dCDP as acceptor
Procedure: (§1) In studying the phytochrome binding site in NDPK2, NDPK2 mutants, including the C-terminal deletion mutants, kinase site mutant H197C, and Kpn loop mutant P175S, were made and tested in the binding assays with the Pfr form of native oat phyA (FIG. 2A). […] To investigate the mechanism of hyperactivity of these NDPK2 mutants, the nucleotide affinity was investigated.
(§2) Full-length Arabidopsis NDPK2 was prepared as previously described (Im et al., 2004). The C-terminal deletion mutants of NDPK2 were prepared by polymerase chain reactions using following primers: R230Stop (80-229aa) with 3′ primer: 5′-[…]-[…]-3′ (SmaI) (SEQ ID NO: 8); L225Stop (80-224aa) with 3′ primer: 5′-[…]-[…]

[2] = biological target: T1, Arabidopsis thaliana NDPK2 C-terminal deletion mutant R230Stop (80-229aa), SEQ ID NO: 2; assay: Km of NDPK2 mutant R230Stop for nucleotides (γ-phosphate exchange activity assay, LDH-PK-coupled); details: read-out: Km (ATP); dCDP as acceptor
Procedure: as §1, §2

[3] = biological target: T2, purified native oat phytochrome A, Pfr …
[4] = substrate: Nc1nc2c(ncn2[C@@H]2O[C@H](COP(=O)(O)OP(=O)(O)O)[C@@H](O)[C@H]2O)c(=O)[nH]1; assay: purified protein, by the assay type; details: other: ATP as donor; 37.0 °C
[5] = substrate: Nc1ncnc2c1ncn2[C@@H]1O[C@H](COP(=O)(O)OP(=O)(O)OP(=O)(O)O)[C@@H](O)[C@H]1O; assay: Km of NDPK2 for nucleotides (γ-phosphate exchange activity assay, LDH-PK-coupled); format: biochemical, Arabidopsis thaliana; details: other: dCDP as acceptor; 37.0 °C
Procedure: NDPK proteins with a cleavable GST tag were expressed in Escherichia coli strain BL21 (DE3). The bacterial cells were induced for 4 h with 1 mM isopropyl β-D-thiogalactopyranoside (IPTG) at 310 K and then harvested by centrifugation at 4,500×g for 20 min. The cells were then resuspended in lysis buffer (1× PBS, phosphate-buffered saline) and lysed by sonication, after which the lysate was centrifuged at 16,000×g for 30 min. The resultant supernatant was applied to a glutathione-sepharose 4B affinity column pre-equilibrated with lysis buffer, after which the column was washed with ten bed volumes of lysis buffer. The GST fusion protein bound to the column was eluted with a buffer of 10 mM glutathione and 50 mM Tris-HCl (pH 8.0). GST Tags were cleaved from NDPKs by treatment with thrombin for 2 days at room temperature. The samples were then purified by size exclusion chromatography using a Superdex 200 column (Pharmacia Biotech) pre-equilibrated with a buffer of 50 mM NaCl and 10 mM Tris-HCl (pH 8.0), after which the fractions containing NDPKs were collected. […]
NDPK2 γ-phosphate exchange activity was measured as previously described (20) with minor modifications. […] NDPK2 activity was measured by monitoring the LDH-PK-coupled NADH decrease at 340 nm. […]

[6] = biological target: T3, purified native oat phytochrome A, Pfr …; assay: in vitro immunoprecipitation with native oat phyA, western blot
Excerpt: In studying the phytochrome binding site in NDPK2, NDPK2 mutants, including the C-terminal deletion mutants, kinase site mutant H197C, and Kpn loop mutant P175S, were made and tested in the binding assays with the Pfr form of native oat phyA (FIG. 2A). […] Moreover, no interactions between Pfr phytochrome and mutants N204Stop and S199Stop were observed. […] Results from the γ-phosphate exchange activity assay were consistent with the in vitro binding assay. […] Thus, R230Stop and L225Stop were hyperactive NDPK2 that binds normally to its upstream signaling molecule, phytochrome. To investigate the mechanism of hyperactivity of these NDPK2 mutants, the nucleotide affinity was investigated. By using two natural nucleotide substrates of NDPK2, ATP and GDP, the Kₘ values were measured to examine the relationship between the nucleotide affinity and NDPK activity in NDPK2 hyperactive mutants (Table 1). […] Therefore, it appears that a higher nucleotide affinity corresponds to a higher NDPK activity.
The in vitro binding assays of phytochrome and NDPK2 were performed by incubating 10 μg of phytochrome and 20 μg of NDPK2 in TBS buffer (50 mM Tris-HCl (pH 7.5), 150 mM NaCl), containing 5 mM MgCl₂, 2 mM dCDP, 0.1% NP40 and protease inhibitors, at 4° C. for 30 min. […]

Molecule	stimulation by Pfr phytochrome in the γ-phosphate exchange activity assay [3]	Km [4]	other results
Nc1ncnc2c1ncn2[C@@H]1O[C@H](COP(=O)(O)OP(=O)(O)OP(=O)(O)O)[C@@H](O)[C@H]1O [ATP]			Km [1]: 213 µM; Km [2]: 211 µM
NDPK2 C-terminal deletion mutant K214Stop (protein) MEDVEETYIMVKPDGIQRGLVGEIISRFEKKGFKLIGLKMFQCPKELAEEHYKELSAKSFFLTLIEYITSGPVVCMAWEGVGVVASARKLIGKTDPLQAEPGTIRGDLAVQTGRNIVHGSDSPENGKREIGLWF	mutants K214Stop, N204Stop, and S199Stop were not stimulated under the identical conditions		
NDPK2 C-terminal deletion mutant L225Stop (protein) MEDVEETYIMVKPDGIQRGLVGEIISRFEKKGFKLIGLKMFQCPKELAEEHYKELSAKSFFLTLIEYITSGPVVCMAWEGVGVVASARKLIGKTDPLQAEPGTIRGDLAVQTGRNIVHGSDSPENGKREIGLWFKEGELCKWDSA	Mutants R230Stop and L225Stop were stimulated by Pfr phytochrome significantly	0.191 mM mM	
Arabidopsis thaliana nucleoside diphosphate kinase 2 (NDPK2), wild type, SEQ ID NO: 1 (Arabidopsis thaliana) (protein, hexamer) ASSSAESGIFLPHLVASMEDVEETYIMVKPDGIQRGLVGEIISRFEKKGFKLIGLKMFQCPKELAEEHYKELSAKSFFLTLIEYITSGPVVCMAWEGVGVVASARKLIGKTDPLQAEPGTIRGDLAVQTGRNIVHGSDSPENGKREIGLWFKEGELCKWDSALATWLRE		0.231 mM mM	Km [5]: 0.286 mM mM
NDPK2 C-terminal deletion mutant N204Stop (enzyme, also called N204Stop (80-203aa)) MEDVEETYIMVKPDGIQRGLVGEIISRFEKKGFKLIGLKMFQCPKELAEEHYKELSAKSFFLTLIEYITSGPVVCMAWEGVGVVASARKLIGKTDPLQAEPGTIRGDLAVQTGRNIVHGSDSPE	mutants K214Stop, N204Stop, and S199Stop were not stimulated under the identical conditions		binding result [6]: no binding
NDPK2 C-terminal deletion mutant S199Stop (enzyme, also called S199Stop (80-198aa)) MEDVEETYIMVKPDGIQRGLVGEIISRFEKKGFKLIGLKMFQCPKELAEEHYKELSAKSFFLTLIEYITSGPVVCMAWEGVGVVASARKLIGKTDPLQAEPGTIRGDLAVQTGRNIVHG	mutants K214Stop, N204Stop, and S199Stop were not stimulated under the identical conditions		binding result [6]: no binding
NDPK2 C-terminal deletion mutant R230Stop (protein) MEDVEETYIMVKPDGIQRGLVGEIISRFEKKGFKLIGLKMFQCPKELAEEHYKELSAKSFFLTLIEYITSGPVVCMAWEGVGVVASARKLIGKTDPLQAEPGTIRGDLAVQTGRNIVHGSDSPENGKREIGLWFKEGELCKWDSALATWL	Mutants R230Stop and L225Stop were stimulated by Pfr phytochrome significantly	0.203 mM mM	
